This assay deals with T1, PH^Ste5 domain (Ste5 aa 373–537), bacterially expressed and purified (S. cerevisiae, UniProt P32917 373-537).
T1 sequence (looked up): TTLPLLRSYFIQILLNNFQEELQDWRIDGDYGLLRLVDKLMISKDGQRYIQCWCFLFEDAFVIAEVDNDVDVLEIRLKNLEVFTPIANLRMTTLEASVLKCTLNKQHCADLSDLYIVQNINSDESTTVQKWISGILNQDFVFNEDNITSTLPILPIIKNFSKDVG
The assay is described as follows: SPR. A general note: Surface plasmon resonance follows binding to a sensor surface in real time, without labels.

As a reminder, the Kd is a measure of binding affinity in units of concentration. A higher Kd goes with a looser complex.

B1: His-tagged RBL^Ste11 domain (Ste11 aa 116–236) (domain or fragment, S. cerevisiae, UniProt P23561 116-236, looked up)
chain: PEKHCVIFILNDGSAKKVNVNGCFNADSIKKRLIRRLPHELLATNSNGEVTKMVQDYDVFVLDYTKNVLHLLYDVELVTICHANDRVEKNRLIFVSKDQTPSDKAISTSKKLYLRTLSALS
Take B1: the Kd was approximately 200 nM.

Values taken from paper PMC3564526 (Molecular Biology of the Cell, 2013).
